{"source": "patent US8158585B2", "about": "“Cross-β structure comprising amyloid-binding proteins and methods for detection of the cross-β structure, for modulating cross-β structures fiber formation and modulating cross-β structure-mediated toxicity” (CrossBeta Biosciences B.V., priority 2002, dated 2012)", "molecules": {"B1": {"name": "CpB: porcine pancreas carboxypeptidase B from Roche (protein, UniProt P09955 111-416, looked up)", "Carboxypeptidase B": "TTGHSYEKYNNWETIEAWTKQVTSENPDLISRTAIGTTFLGNNIYLLKVGKPGPNKPAIFMDCGFHAREWISHAFCQWFVREAVLTYGYESHMTEFLNKLDFYVLPVLNIDGYIYTWTKNRMWRKTRSTNAGTTCIGTDPNRNFDAGWCTTGASTDPCDETYCGSAAESEKETKALADFIRNNLSSIKAYLTIHSYSQMILYPYSYDYKLPENNAELNNLAKAAVKELATLYGTKYTYGPGATTIYPAAGGSDDWAYDQGIKYSFTFELRDKGRYGFILPESQIQATCEETMLAIKYVTNYVLGHL"}, "B2": {"name": "tPA F-EGF-GST: tPA F-EGF domains with C-terminal GST tag, expressed in BHK cells and purified (protein)", "chain": "SYQVICRDEKTQMIYQQHQSWLRPVLRSNRVEYCWCNSGRAQCHSVPVKSCSEPRCFNGGTCQQALYFSDFVCQCPEGFAGKCCEID", "modifications": "left off: small tags and cut ends; a dimerising Fc or GST", "notes": "tPA F-EGF domains with C-terminal GST tag, expressed in BHK cells and purified"}}, "key": {"tPA [1]": {"biological_target": "T1, tPA (Homo sapiens, UniProt P00750)", "T1 construct": "purchased Boehringer-Ingelheim (Germany)", "T1 sequence (P00750 36-562)": "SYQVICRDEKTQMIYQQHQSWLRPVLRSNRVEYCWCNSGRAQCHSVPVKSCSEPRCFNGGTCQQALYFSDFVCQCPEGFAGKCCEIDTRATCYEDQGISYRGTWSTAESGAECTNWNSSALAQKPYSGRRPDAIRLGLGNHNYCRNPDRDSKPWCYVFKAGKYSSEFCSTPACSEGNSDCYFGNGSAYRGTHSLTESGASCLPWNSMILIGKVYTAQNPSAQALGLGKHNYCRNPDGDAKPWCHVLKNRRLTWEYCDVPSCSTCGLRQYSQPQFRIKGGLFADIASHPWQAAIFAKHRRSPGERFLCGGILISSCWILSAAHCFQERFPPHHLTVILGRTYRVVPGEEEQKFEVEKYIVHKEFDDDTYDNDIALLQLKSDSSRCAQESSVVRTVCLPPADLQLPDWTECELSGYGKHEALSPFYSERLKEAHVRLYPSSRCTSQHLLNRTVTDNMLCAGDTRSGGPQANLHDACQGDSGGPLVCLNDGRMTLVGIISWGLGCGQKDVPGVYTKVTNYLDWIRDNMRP", "assay": "ELISA: binding of tPA to glycated albumin and Hb", "details": "g6p-glycated protein immobilized", "experimental": "Binding of tPA to albumin-g6p (four-week and 23-week incubations), albumin-glyceraldehyde, control albumin, human Hb-g6p (ten-week incubation), Hb control, or to Aβ (1-40) was tested using an enzyme-linked immunosorbent assay (ELISA) set-up. Albumin-g6p and control albumin (2.5 μg ml^−1 in coat buffer, 50 mM Na2CO3/NaHCO3 pH 9.6, 0.02% m/v NaN3, 50 μl/well) were immobilized for one hour at room temperature in 96-well protein Immobilizer plates (Exiqon, Vedbaek, Denmark). Aβ (1-40) (10 μg ml^−1 in coat buffer) was immobilized for 75 minutes at room temperature in a 96-well peptide Immobilizer plate (Exiqon, Vedbaek, Denmark). Control wells were incubated with coat buffer only. After a wash step with 200 μl of PBS/0.1% v/v Tween 20, plates were blocked with 300 μl of PBS/1% v/v Tween 20, for two hours at room temperature while shaking. All subsequent incubations were performed in PBS/0.1% v/v Tween 20 for one hour at room temperature while shaking, with volumes of 50 μl per well. After each incubation, wells were washed five times with 200 μl of PBS/0.1% v/v Tween 20. Increasing amounts of f.l. tPA or K2-P tPA was added in triplicate to coated wells and to control wells. […] Absorbance was read at 490 nm on a Vmax kinetic microplate reader (Molecular Devices, Sunnyvale, Calif., USA)."}, "[2]": {"assay": "Circular dichroism: percentage β-sheet (k2d software)", "type": "physicochemical", "experimental": "UV circular dichroism (CD) spectra of peptide and protein solutions ([…] in H2O) were measured on a JASCO J-810 CD spectropolarimeter (Tokyo, Japan). Averaged absorption spectra of five or ten single measurements from 190-240 nm or from 190-250 nm, for fibrin peptides 85, 86, 87 or for albumin, glycated albumin and human Aβ (16-22), respectively, are recorded. The CD spectrum of Aβ (16-22) was measured as a positive control. Aβ (16-22) readily adopts amyloid fiber conformation with cross-β structure when incubated in H2O^45. For albumin and Aβ (16-22), relative percentage of the secondary structure elements present was estimated using k2d software.^48"}, "tPA [3]": {"biological_target": "T1, tPA", "assay": "ELISA: binding of tPA to 86-week glycated albumin-AGE preparations", "details": "albumin incubated 86 weeks; 10 mM εACA", "experimental": "Binding of the cross-B structure marker tPA to albumin-AGE was tested using an ELISA setup. […] Therefore, we used tPA binding to these two peptides as positive control. The 86-week glycated samples and controls were coated to Greiner microlon plates (catalogue #655092, Greiner, Frickenhausen, Germany). Wells were blocked with Superblock (Pierce, Rockford, Ill., USA). All subsequent incubations were performed in PBS/0.1% (v/v) Tween 20 for one hour at room temperature while shaking, with volumes of 50 μl per well. After incubation, wells were washed five times with 300 μl PBS/0.1% (v/v) Tween 20. Increasing concentrations of tPA were added in triplicate to coated wells as well as to control wells. During tPA incubations of 86-week incubated samples, at least a 123,000 times molar excess of ε-amino caproic acid (εACA, 10 mM) was added to the solutions. εACA is a lysine analogue and is used to avoid potential binding of tPA to albumin via its kringle 2 domain.^50 Monoclonal antibody 374b (American Diagnostica, Instrumentation laboratory, Breda, The Netherlands) and, subsequently, RAMPO (Dako diagnostics, Glostrup, Denmark) was added to the wells at a concentration of 0.3 μg ml^−1. Bound peroxidase-labeled antibody was visualized using 100 μl of a solution containing 8 mg ortho-phenylene-diamine in 20 ml 50 mM citric acid/100 mM Na2HPO4 pH 5.0 with 0.0175% (v/v) H2O2. Staining was stopped upon adding 50 μl of a 2 M H2SO4 solution. Absorbance was read at 490 nm on a Vmax kinetic microplate reader (Molecular Devices, CA, USA). Background signals from non-coated control wells were substracted from corresponding coated wells."}, "[4]": {"tested_on": "differentiated N1E-115 cells", "assay": "N1E-115 cell detachment (methylene blue staining)", "type": "cell-based, mouse", "details": "Aβ 10 μM, plasminogen 20 μg ml−1, CpB 1 μM, 24 hours", "experimental": "FIG. 4 is a set of graphs illustrating stimulation of tPA-mediated plasmin formation by Aβ and synergistic stimulation of cell detachment by plasminogen and Aβ. Panel A depicts that plasminogen (200 μg/ml) and tPA (200 pM) were incubated with Aβ (5 μM) or control buffer. Samples were taken from the reaction mixture at the indicated periods of time and plasmin activity was measured by conversion of the chromogenic plasmin substrate S-2251 at 405 nm. […] After 48 hours, the dead cells were washed away and the remaining adherent cells were stained with methylene blue. Plasmin cannot prevent Aβ-induced cell detachment. Panel C illustrates that N1E-115 cells were differentiated and received the indicated concentrations of plasminogen in the presence or absence of 10 μM Aβ. After 24 hours, cell detachment was assessed. […] Panel D is an immunoblot analysis of plasmin formation and laminin degradation. Differentiated N1E-115 cells were treated with or without Aβ (10 μM) in the absence or presence of added plasminogen. Addition of Aβ results in the formation of plasmin (bottom panel) and in degradation of laminin (top panel).\n(§1) FIG. 5 depicts graphs illustrating that carboxypeptidase B inhibits Aβ-stimulated tPA-mediated plasmin formation and cell detachment. […] Samples were taken from the reaction mixture at the indicated periods of time and plasmin activity was measured by conversion of the chromogenic plasmin substrate S-2251 at 405 nm. The reaction was performed in the absence or the presence of 50 μg ml^−1 carboxypeptidase B (CpB) and in the absence or presence of 3.5 μM carboxypeptidase inhibitor (CPI). CpB greatly attenuates A-stimulated plasmin formation. […] After 24 hours, the cells were photographed. Panel C illustrates that, subsequently, the cells were washed once with PBS and the remaining cells were quantified as percentage-adhered cells by methylene blue staining. In Panel D, the cells were treated as in Panels B and C and medium and cell fractions were collected and analyzed by Western blot using an anti-plasmin(ogen) antibody. Aβ stimulates plasmin formation that is inhibited by CpB.\nN1E-115 mouse neuroblastoma cells were routinely cultured in DMEM containing 5% FCS, supplemented with antibiotics. Cells were differentiated into post-mitotic neurons.^52 The cells were exposed to Aβ (50 μg ml^−1) for 24 hours in the presence or absence of 20 μg ml^−1 plasminogen in the presence or absence of 50 μg ml^−1 CpB. Cells were photographed, counted and lysed by the addition of 4× sample buffer (250 mM Tris pH 6.8, 8% SDS, 10% glycerol, 100 mM DTT, 0.01% w/v bromophenol blue) to the medium. The lysate, containing both adherent and floating (presumably dying and/or dead) cells, as well as the culture medium, were analyzed for the presence of plasminogen and plasmin, as well as for laminin, by Western blot analysis using specific antibodies against plasminogen (MoAb 3642, American Diagnostics), laminin (PoAb L9393, Sigma)."}, "[5]": {"biological_target": "T2, tPA-mediated plasminogen activation (Homo sapiens, UniProt P00750)", "T2 construct": "purchased Boehringer-Ingelheim (Germany)", "T2 sequence (P00750 36-562)": "as above", "assay": "Plasminogen activation assay", "type": "biochemical", "details": "50 μg ml−1 CpB, 5 μM Aβ", "experimental": "Plasminogen (200 μg ml^−1) was incubated with tPA (200 pM) in the presence or the absence of a co-factor (5 μM of either endostatin, Aβ (1-40), or one the fibrin-derived peptides 85, 86 and 87). At the indicated time intervals, samples were taken and the reaction was stopped in a buffer containing 5 mM EDTA and 150 mM εACA. After collection of the samples, a chromogenic plasmin substrate S-2251 was added and plasmin activity was determined kinetically in a spectrophotometer at 37° C."}, "[6]": {"tested_on": "Aβ-stimulated plasmin formation in N1E-115 cells", "assay": "Western blot of plasmin formation in N1E-115 cultures", "type": "cell-based, mouse", "details": "co-incubation with CpB", "experimental": "as §1\nN1E-115 mouse neuroblastoma cells were routinely cultured in DMEM containing 5% FCS, supplemented with antibiotics. […] Cells were photographed, counted and lysed by the addition of 4× sample buffer (250 mM Tris pH 6.8, 8% SDS, 10% glycerol, 100 mM DTT, 0.01% w/v bromophenol blue) to the medium. […]"}, "[7]": {"tested_on": "amyloid deposits in human brain inflicted by AD", "assay": "Immunohistochemistry: binding of tPA F-EGF to human AD brain", "details": "7 nM construct; Congo red fluorescence to locate amyloid", "experimental": "Paraffin brain sections of a human inflicted with AD was a kind gift of Prof. Slootweg (Dept. of Pathology, UMC Utrecht). Sections were deparaffinized in a series of xylene-ethanol. Endogenous peroxidases were blocked with methanol/1.5% H2O2 for 15 minutes. After rinsing in H2O, sections were incubated with undiluted formic acid for ten minutes, followed by incubation in PBS for five minutes. Sections were blocked in 10% HPS in PBS for 15 minutes. Sections were exposed for two hours with 7 nM of tPA F-EGF-GST or GST in PBS/0.3% BSA. After three wash steps with PBS, sections were overlayed with 200 ng ml^−1 anti-GST antibody Z-5, for one hour. After washing, ready-to-use goat anti-rabbit Powervision (Immunologic, Duiven, The Netherlands, catalogue #DPVR-55AP) was applied and incubated for one hour. After washing, sections were stained for ten minutes with 3,3′-diamino benzidine (Sigma-Aldrich, St Louis, Mo., USA, catalogue #D-5905), followed by hematoxylin staining for ten seconds. After washing with H2O, sections were incubated with Congo red according to the manufacturer's recommendations (Sigma Diagnostics, St Louis, Mo., USA). […] Analysis of sections was performed on a Leica DMIRBE fluorescence microscope (Rijswijk, The Netherlands). Fluorescence of Congo red was analyzed using an excitation wavelength of 596 nm and an emission wavelength of 620 nm."}, "Aβ fibrils": {"biological_target": "T3, Aβ fibrils (Homo sapiens, UniProt P05067)", "T3 construct": "Peptide Aβ (1-40), containing amino acids as present in the described human Alzheimer peptide; purchased Pepscan, Inc. (The Netherlands) or peptide synthesis facility at the Netherlands Cancer Institute; host or cells: synthetic peptide", "T3 sequence (P05067 672-711)": "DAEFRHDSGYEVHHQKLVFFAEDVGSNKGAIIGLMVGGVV", "assay": "Amyloid pull-down with insoluble Aβ fibers", "type": "binding", "details": "conditioned BHK medium", "experimental": "Conditioned medium of BHK cells expressing GST-tagged tPA F, F-EGF, EGF, K1, F-EGF-K1, FXII F, HGFa F, Fn F4, Fn F5, Fn F4-5 and GST was used for amyloid binding assays. At first, constructs were adjusted to approximately equal concentration using Western blots. Qualitative binding of the recombinant fragments were evaluated using a “pull-down” assay. To this end, the recombinantly made fragments were incubated with either Aβ or IAPP fibrils. Since these peptides form insoluble fibers, unbound proteins can be easily removed from the fibers following centrifugation. The pellets containing the bound fragments were subsequently washed several times. Bound fragments were solubilized in SDS-sample buffer and analyzed by PAGE, as were unbound proteins in the supernatant fraction and starting material. The gels were analyzed using immunoblotting analysis with the anti-GST antibody Z-5."}, "mΔIAPP": {"biological_target": "T4, mΔIAPP (Mus musculus, UniProt P12968)", "T4 construct": "purchased Pepscan, Inc. or peptide synthesis facility of the Netherlands Cancer Institute; host or cells: chemical synthesis", "assay": "Amyloid ELISA with tPA F-EGF-GST: non-amyloid control", "type": "binding", "experimental": "In order to define the affinity of the purified tPA F-EGF-GST recombinant protein, ELISAs were performed with immobilized amyloid (poly)peptides and non-amyloid control ΔmIAPP. Twenty-five μg ml^−1 of Aβ, FP13, IAPP or ΔmIAPP was immobilized on Exiqon peptide immobilizer plates. A concentration series of tPA F-EGF-GST in the presence of excess εACA was added to the wells and binding was assayed using anti-GST antibody Z-5. As a control, GST (Sigma-Aldrich, St. Louis, Mo., USA, catalogue #G-5663) was used at the same concentrations."}}}
{"molecule": "Hb-g6p: human hemoglobin incubated with glucose-6-phosphate", "values": [{"measurement": "tPA binding", "setting": "tPA [1]", "result": "high-affinity tPA binding"}]}
{"molecule": "Albumin-g6p", "values": [{"measurement": "β-sheet (%)", "setting": "[2]; incubation time 2 weeks", "result": 0, "unit": "%"}, {"measurement": "β-sheet (%)", "setting": "[2]; incubation time 4 weeks", "result": 7, "unit": "%"}, {"measurement": "β-sheet (%)", "setting": "[2]; incubation time 23 weeks", "result": 19, "unit": "%"}, {"measurement": "tPA binding", "setting": "tPA [1]", "result": "high-affinity tPA binding"}, {"measurement": "binding of amyloid-specific serine protease tPA", "setting": "tPA [3]", "result": "bound specifically"}]}
{"molecule": "B1", "values": [{"measurement": "cell detachment induced by plasminogen and Aβ", "setting": "[4]", "result": "completely prevented"}, {"measurement": "Aβ-stimulated generation of plasmin in the presence of CpB", "setting": "[5]", "result": "greatly diminished"}, {"measurement": "Aβ-stimulated plasmin formation in the medium and on the cells", "setting": "[6]", "result": "complete inhibition"}]}
{"molecule": "B2", "values": [{"measurement": "binding to amyloid deposits in AD brain sections", "setting": "[7]", "result": "positive for tPA F-EGF-GST binding"}, {"measurement": "binding to Aβ fibers (pull-down, Western blot)", "setting": "Aβ fibrils", "result": "Efficient binding"}, {"measurement": "binding to non-amyloid mΔIAPP", "setting": "mΔIAPP", "result": "No binding"}]}
